Experimental data taken from article PMC6506776.

How the values were obtained:
[1] = molecular target: His-NtCDC48 recombinant protein (Nicotiana tabacum); test: SDS-PAGE and immunoblot
[2] = molecular target: NtCDC48, endogenous (Nicotiana tabacum (endogenous in cv. Xanthi cell suspensions)); test: SDS-PAGE and immunoblot
[3] = molecular target: CFP-NtCDC48 (Nicotiana tabacum); test: FRET or BRET
[4] = molecular target: cytosolic ascorbate peroxidase (cAPX), endogenous (Nicotiana tabacum (endogenous in cv. Xanthi cell suspensions)); test: native gel or EMSA

Substance: His-NtCDC48 recombinant protein (natural protein)
- stoichiometry N [1]: 6

Substance: NtCDC48, endogenous (natural protein)
- stoichiometry N [2]: 6

Substance: cAPX-YFP (enzyme)
- CFP donor fluorescence lifetime with the acceptor (2.97 ns for the donor alone) [3]: 2.41 ns

Substance: cytosolic ascorbate peroxidase (cAPX), endogenous (enzyme)
- stoichiometry N [4]: 2
